This is an account of results in patent US20160108128A1 (CANCER RESEARCH TECHNOLOGY, published 2016).

B1: J1-65D variant 5 (antibody, human IgG1, V domains shown)
VH: QVQLVQSGAELKKPGSSVKVSCKASGYTFTDYEMHWVRQAPGQGLEWMGAIQPGGGGTAYNQKFKGRVTLTADKSTSTAYMELSSLRSEDTAVYYCTRRGYDDYPFAYWGQGTLVTVSS
VL: DIQMTQSPSSLSASVGDRVTITCRASGNIHNYLAWYQQKPGKAPKLLIYNAKTLADAVPSRFSGSGSGTDYTLTISSLQPEDFATYYCQHFWSAPWTFGGGTKLEIKR
notes: human IgG1; also called J1-65DV5; V5
B2: J1-65D variant 12 (antibody, human IgG1, V domains shown)
VH: B1 VH with L11V, N61A, K65Q, L70I
VL: B1 VL with G100Q
notes: human IgG1; also called J1-65DV12; V12
B3: J1-65D variant 8 (antibody, human IgG1, V domains shown)
VH: B1 VH with L11V, N61A, K65Q, L70I
VL: B1 VL
notes: human IgG1; also called J1-65DV8; V8
B4: J1-65D variant 9 (antibody, human IgG1, V domains shown)
VH: B1 VH
VL: B1 VL with G100Q
notes: human IgG1; also called J1-65DV9; V9
B5: J1-65D variant 11 (antibody, human IgG1, V domains shown)
VH: B1 VH with L11V, N61A, K65Q
VL: B1 VL with G100Q
notes: human IgG1; also called J1-65DV11; V11
B6: J1-65D variant 7 (antibody, human IgG1, V domains shown)
VH: B1 VH with L11V, N61A, K65Q
VL: B1 VL
notes: human IgG1; also called J1-65DV7; V7
B7: J1-65D variant 10 (antibody, human IgG1, V domains shown)
VH: B1 VH with N61A
VL: B1 VL with G100Q
notes: human IgG1; also called J1-65DV10; V10
B8: J1-183D (antibody, V domains shown)
VH: QVQLQQPGTELVRPGVSVKISCKVSGYAFTDYAIHWIMQSHAKSLEWIGIINTYYGDSKYNQKFKDKATMTVDKSSNTAYMELARLTSEDSAIYYCARGYDGFAYWGQGTLVTVSS
VL: DIQLTQSPASLSASVGETVTFTCRTSENIYSYLTWYQQKQGKSPQLLVYNAKILAAGVPSRFSGYGSGTQFSLKINSLQPEDFGTYYCQHHYDIPWTFGGGTKLEIK
B9: J1-65D (antibody, V domains shown)
VH: QVQLQQPGAELVRPGASVKLSCKALGYTFTDYEMHWVKETPVHGLEWIGAIQPGGGGTAYNQKFKGKATLTADKSSSTAYMELSSLTSEDSAVYYCTRRGYDDYPFAYWGQGTLVTVSS
VL: DIQLTQSPASLSASVGETVTITCRASGNIHNYLAWYQQKQGKSPQLLVYNAKTLADDIPSRFSGSGSGTQYSLKINSLQPEDFGSYYCQHFWSAPWTFGGGTKLEIK

Residue numbers refer to the chain shown, from its start.

T5 sequence (Q9QXX0 34-1218, one chain of several): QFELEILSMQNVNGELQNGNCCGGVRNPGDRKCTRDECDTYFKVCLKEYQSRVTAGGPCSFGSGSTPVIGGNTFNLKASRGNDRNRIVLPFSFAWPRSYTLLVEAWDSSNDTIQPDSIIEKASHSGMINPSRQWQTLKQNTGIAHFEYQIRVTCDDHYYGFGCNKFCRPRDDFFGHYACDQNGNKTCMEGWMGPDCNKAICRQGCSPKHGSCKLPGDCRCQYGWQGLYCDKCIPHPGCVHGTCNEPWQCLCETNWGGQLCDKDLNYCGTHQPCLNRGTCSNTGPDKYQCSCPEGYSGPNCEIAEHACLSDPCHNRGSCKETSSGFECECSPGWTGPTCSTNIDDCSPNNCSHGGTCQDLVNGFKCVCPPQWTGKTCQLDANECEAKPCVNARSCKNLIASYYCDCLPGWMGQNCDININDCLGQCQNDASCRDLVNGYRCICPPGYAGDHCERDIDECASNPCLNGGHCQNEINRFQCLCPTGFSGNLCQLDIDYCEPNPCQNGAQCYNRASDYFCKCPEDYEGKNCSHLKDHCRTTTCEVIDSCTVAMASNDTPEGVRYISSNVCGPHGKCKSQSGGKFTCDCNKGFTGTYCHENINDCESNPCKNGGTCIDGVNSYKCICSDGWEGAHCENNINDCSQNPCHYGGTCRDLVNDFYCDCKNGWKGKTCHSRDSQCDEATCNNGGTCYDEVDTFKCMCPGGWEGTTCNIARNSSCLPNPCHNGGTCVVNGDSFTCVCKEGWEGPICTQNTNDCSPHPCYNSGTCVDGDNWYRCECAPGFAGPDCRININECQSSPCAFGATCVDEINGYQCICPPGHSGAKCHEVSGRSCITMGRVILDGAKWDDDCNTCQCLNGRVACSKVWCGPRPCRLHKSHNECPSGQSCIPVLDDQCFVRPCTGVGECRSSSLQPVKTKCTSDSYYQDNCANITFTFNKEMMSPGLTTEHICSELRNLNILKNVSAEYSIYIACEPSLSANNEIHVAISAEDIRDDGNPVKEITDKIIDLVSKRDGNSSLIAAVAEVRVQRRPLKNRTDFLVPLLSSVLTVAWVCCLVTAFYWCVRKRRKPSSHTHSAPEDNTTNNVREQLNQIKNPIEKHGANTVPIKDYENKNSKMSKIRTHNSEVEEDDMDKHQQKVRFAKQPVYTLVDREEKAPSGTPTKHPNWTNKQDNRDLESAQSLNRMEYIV

The target of the first experiment is T1, human Jagged 2, full length, on HEK293 cells (human, UniProt Q9Y219 24-1238).
T1 construct: whole, on cells; also called J2; hJ2
T1 sequence (Q9Y219 24-1238): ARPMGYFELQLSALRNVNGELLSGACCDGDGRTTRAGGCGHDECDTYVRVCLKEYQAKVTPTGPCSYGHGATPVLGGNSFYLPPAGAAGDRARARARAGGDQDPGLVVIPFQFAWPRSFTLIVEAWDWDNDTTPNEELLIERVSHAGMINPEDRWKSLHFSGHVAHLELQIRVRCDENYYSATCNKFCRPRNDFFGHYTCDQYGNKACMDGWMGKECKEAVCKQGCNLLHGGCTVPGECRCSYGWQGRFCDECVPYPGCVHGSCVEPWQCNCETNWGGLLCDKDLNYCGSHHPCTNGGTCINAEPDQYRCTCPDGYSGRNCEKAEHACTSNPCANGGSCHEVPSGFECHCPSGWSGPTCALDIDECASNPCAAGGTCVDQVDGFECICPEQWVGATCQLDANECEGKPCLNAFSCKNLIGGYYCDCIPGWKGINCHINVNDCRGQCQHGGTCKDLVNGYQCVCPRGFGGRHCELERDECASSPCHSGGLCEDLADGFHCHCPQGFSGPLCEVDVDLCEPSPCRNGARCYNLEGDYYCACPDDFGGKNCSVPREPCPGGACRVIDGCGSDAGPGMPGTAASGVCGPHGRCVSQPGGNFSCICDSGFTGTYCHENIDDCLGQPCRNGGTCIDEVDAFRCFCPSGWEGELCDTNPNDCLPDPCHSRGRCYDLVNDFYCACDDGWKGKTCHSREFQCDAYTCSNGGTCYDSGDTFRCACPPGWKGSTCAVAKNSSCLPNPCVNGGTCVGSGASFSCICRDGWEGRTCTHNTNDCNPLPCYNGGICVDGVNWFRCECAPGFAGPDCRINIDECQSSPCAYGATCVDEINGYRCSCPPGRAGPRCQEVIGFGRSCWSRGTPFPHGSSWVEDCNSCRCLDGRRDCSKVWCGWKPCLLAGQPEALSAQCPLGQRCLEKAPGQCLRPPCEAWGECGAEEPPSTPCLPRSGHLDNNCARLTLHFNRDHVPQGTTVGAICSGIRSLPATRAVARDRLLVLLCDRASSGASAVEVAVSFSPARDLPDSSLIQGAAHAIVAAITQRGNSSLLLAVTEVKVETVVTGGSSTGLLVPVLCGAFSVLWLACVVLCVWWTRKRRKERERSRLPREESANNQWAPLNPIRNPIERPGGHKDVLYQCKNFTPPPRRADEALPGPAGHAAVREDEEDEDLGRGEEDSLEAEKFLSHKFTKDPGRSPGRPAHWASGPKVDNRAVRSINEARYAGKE
The experiment can be described thus: FACS, 293-JAG2 cells, anti-human-APC. Here is the method: FIG. 18. […] Samples were analysed by FACS and the mean fluorescence intensities (MFI) were plotted. […] With the exception of J1-65D variants 13-16, all the remaining antibodies effectively bound the human J1 protein.
(§1) HEK293 cells transfected with human J1, J2 or FLAG-EGFP-tagged DSL-EGF3 constructs, B16F10 cells transfected with human DLL4 or mouse J1, and human cancer cell lines, were stained with either purified anti-J1 antibodies at 10 μg/ml diluted in FACS wash buffer (2% FBS in PBS+0.1% sodium azide) or neat hybridoma supernatants followed by a allophycocyanin (APC)-conjugated secondary antibody at 1:200 dilution: for murine primary antibodies, used goat anti-mouse-APC (eBioscience); for humanised and chimeric antibodies used goat anti-human IgG (H+L) secondary antibody (Jackson ImmunoResearch Laboratories). After washing, samples were fixed with 1% paraformaldehyde (in PBS) and acquired with a FACSCalibur. FACS data were analysed with FlowJo software (TreeStar Inc.).
(In general: In flow cytometry, cells or beads pass a laser one at a time.)
Turning to B1, the binding result was “no binding (tested: 10 ug/ml)”.

For B2, the binding result was “no binding (tested: 10 ug/ml)”.

With B3, the binding result was “no binding (tested: 10 ug/ml)”.

As for B4, the binding result is listed as “no binding (tested: 10 ug/ml)”.

For the molecule B5, the binding result was “no binding (tested: 10 ug/ml)”.

Turning to B6, the binding result was “no binding (tested: 10 ug/ml)”.

B7: the binding result is “no binding (tested: 10 ug/ml)”.

The target in a further experiment is T2, J1 DSL-EGF3 soluble recombinant protein (human Jagged 1 amino acids 185-335) (human, UniProt P78504 185-335).
T2 construct: biotinylated in the CD46 ELISA; also called J1-DE3; DSL+EGF1-3
T2 sequence (P78504 185-335, form in doubt): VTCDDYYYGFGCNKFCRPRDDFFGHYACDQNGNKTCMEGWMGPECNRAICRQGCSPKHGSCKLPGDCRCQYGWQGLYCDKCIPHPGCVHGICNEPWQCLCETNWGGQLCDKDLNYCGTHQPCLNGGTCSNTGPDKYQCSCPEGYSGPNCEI
The experiment can be described thus: SPR (Biacore), mAb immobilised, J1 protein in flow. For orientation: Surface plasmon resonance follows binding to a sensor surface in real time, without labels.
Usually Kd stands for the free concentration of one partner at which half of the binding sites on the other are occupied at equilibrium, for simple one-to-one binding. As to B8, the Kd is 4900 pM.

As for B9, the Kd amounted to 9700 pM.

The next experiment concerns the target T3, J1-NE3 (human Jagged 1, entire N-terminus until the third EGF domain) (human, UniProt P78504 32-335, limits assumed).
T3 construct: domain: entire N-terminus until the third EGF domain; eukaryotically expressed soluble form used in SPR
The experiment can be described thus: SPR (Biacore), mAb immobilised, J1 protein in flow.
B8 displayed a Kd of 5200 pM.

The molecule B9 came in with a Kd of 3300 pM.

The target of a further experiment is T4, J1-NE12 (human Jagged 1, entire N-terminus to EGF12) (human, UniProt P78504 32-703).
T4 construct: domain: entire N-terminus to EGF12; eukaryotically expressed soluble form used in SPR
The experiment can be described thus: SPR (Biacore), mAb immobilised, J1 protein in flow.
Regarding B8, the affinity, expressed as Kd, was 4400 pM.

As to B9, the Kd was found to be 3000 pM.

Another experiment has as its target T5, murine Jagged 1, full length, on B16F10 cells (mouse, UniProt Q9QXX0 34-1218).
T5 construct: whole, on cells; GFP co-expressed; also called mJ1; B16F10-mJAG1
The experiment can be described thus: FACS, B16F10-mJAG1 cells, anti-human-APC. Here is the method:
FIG. 19. […] Samples were analysed by FACS and the mean fluorescence intensities (MFI) were plotted.
as §1
B1: the binding result is “no binding (tested: 10 ug/ml)”.

Regarding B2, the binding result is listed as “no binding (tested: 10 ug/ml)”.

Regarding B3, the binding result is “no binding (tested: 10 ug/ml)”.

Turning to B4, the binding result is recorded as “no binding (tested: 10 ug/ml)”.

B5: the binding result was “no binding (tested: 10 ug/ml)”.

In the case of B6, the binding result was “no binding (tested: 10 ug/ml)”.

As to B7, the binding result is “no binding (tested: 10 ug/ml)”.

Another experiment deals with T2, J1 DSL-EGF3 soluble recombinant protein …. The experiment can be described thus: affinity to the immunogen J1-DE3; method not stated.
B8: the Kd came out at 580 pM.

With B9, the Kd was found to be 130 pM.

Turning to B1, the Kd stood at 44.6 pM.

On to B2, for which the Kd was 80.6 pM.

For the molecule B3, the Kd was found to be 71.7 pM.

On to B4, for which the Kd is 13.9 pM.

Take B5: the Kd was 243 pM.

Take B6: the Kd is 151 pM.

As for B7, the Kd worked out at 293 pM.

For a further experiment, the target named is T6, human Jagged 1, full length, on cells (human, UniProt P78504 34-1218).
T6 construct: whole, on cells; the cell is named under assay; also called hJ1; J1
T6 sequence (P78504 34-1218): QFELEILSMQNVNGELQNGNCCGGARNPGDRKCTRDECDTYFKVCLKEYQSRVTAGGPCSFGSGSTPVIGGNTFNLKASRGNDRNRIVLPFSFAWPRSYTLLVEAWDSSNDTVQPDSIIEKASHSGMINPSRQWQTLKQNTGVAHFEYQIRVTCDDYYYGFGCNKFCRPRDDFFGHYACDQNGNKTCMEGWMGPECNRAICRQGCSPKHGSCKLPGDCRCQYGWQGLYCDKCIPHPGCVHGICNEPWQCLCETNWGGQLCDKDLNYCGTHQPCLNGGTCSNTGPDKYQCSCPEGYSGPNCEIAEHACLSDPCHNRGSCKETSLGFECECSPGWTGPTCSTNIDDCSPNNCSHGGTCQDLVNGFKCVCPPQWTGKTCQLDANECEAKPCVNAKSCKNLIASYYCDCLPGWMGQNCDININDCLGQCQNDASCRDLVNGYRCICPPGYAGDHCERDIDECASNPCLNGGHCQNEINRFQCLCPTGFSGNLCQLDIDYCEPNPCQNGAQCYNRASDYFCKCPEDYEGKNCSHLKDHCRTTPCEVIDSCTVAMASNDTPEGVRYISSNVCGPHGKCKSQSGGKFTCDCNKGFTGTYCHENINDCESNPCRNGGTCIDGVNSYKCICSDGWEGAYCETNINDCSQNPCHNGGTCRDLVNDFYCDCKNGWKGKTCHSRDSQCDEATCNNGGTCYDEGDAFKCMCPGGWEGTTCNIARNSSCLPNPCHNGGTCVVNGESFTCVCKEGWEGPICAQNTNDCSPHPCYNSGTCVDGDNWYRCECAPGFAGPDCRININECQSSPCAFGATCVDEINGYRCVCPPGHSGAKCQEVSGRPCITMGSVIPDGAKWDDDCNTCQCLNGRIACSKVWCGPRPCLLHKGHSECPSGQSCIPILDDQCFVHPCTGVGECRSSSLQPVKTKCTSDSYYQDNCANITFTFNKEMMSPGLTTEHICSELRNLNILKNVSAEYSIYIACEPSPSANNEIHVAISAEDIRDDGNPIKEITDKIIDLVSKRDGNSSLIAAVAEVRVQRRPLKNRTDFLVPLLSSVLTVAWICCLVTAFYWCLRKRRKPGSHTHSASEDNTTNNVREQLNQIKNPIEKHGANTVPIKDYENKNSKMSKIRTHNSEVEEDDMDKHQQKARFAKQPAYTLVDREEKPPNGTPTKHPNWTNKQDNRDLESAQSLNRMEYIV
The experiment can be described thus: FACS competition, HEK293-J1 cells, against biotinylated J1-65D 1.0 µg/ml.
As to B9, the “IC50 (read off the curve)” value was roughly 1 µg/mL.

The next experiment has as its target T6, human Jagged 1, full length, on cells. The experiment can be described thus: FACS competition, HEK293-J1 cells, against biotinylated J1-156A 1.0 µg/ml.
On to B9, for which the “IC50 (read off the curve)” value was roughly 0.6 µg/mL.

The target is the same in another experiment. The experiment can be described thus: FACS competition, HEK293-J1 cells, against biotinylated J1-187B 1.0 µg/ml.
With B9, the “IC50 (read off the curve)” value was roughly 0.5 µg/mL.
